The values that follow come from patent US20160355575A1 (Hoffmann-La Roche, published 2016).

The labels stand for the following.
B2: VHH R3VQ (VHH)
VHH: EVQLQASGGGLVQTGDSLRLSCADSGSTFRNYNIGWFRQTPGQAREFVAAVSRTGISTHVADSLQGRFTISRDNAKNTVYLQMNSLKPEDTAVYSCAAGRPGVGAVNRAMDYDYWGQGTQVTVSS
notes: Alpaca VHH, monomeric; Expressed with a His-tag or a Strep-tag; also called R3VQ(His)-NH2 1; R3VQ-NH2 1; not shown: 6-Histidine tag (vector pET23) or Streptavidin-tag (vector pASK IBA2)

In test [1] the target is B2. The test can be described thus: competitive inhibition ELISA, soluble peptide against plate-coated Aβ antigen. The method, then: (§1) The binding affinity of VHHs was determined as previously described (Friguet B. et al., 1985, Immunol Methods, 77:305-19). Briefly, various concentrations of Aβ peptides (Aβ fragments 1-16, 10-20, 15-25, 22-35 and 29-40) were incubated in solution overnight at 4° C. with a known quantity of VHH until equilibrium was reached. The VHH concentration used was deteimined by preliminary ELISA calibrations. Each mixture (100 μl) was transferred to a well of a microtiter plate previously coated with antigen and was incubated for 20 min at 4° C. The plates were washed with buffer 0.1% Tween 20 in PBS and bound VHHs were detected by adding beta-galactosidase-conjugated goat anti-rabbit Igs (Biosys, Compiegne, France) and 4-methylumbelliferyl […] (Sigma). Fluorescence was read (Fluoroskan, Labsystem, Finland) at 460 nm, after excitation at 355 nm. KD was estimated from the slope of the regression curve obtained by plotting the reciprocal of the fraction of bound antibody versus the reciprocal of the molar concentration of antigen.
(In an ELISA, binding on a coated surface is turned into a signal by an enzyme label.)

Test [2] addresses T1, A-beta 42 peptide (Aβ42) (human).
T1 construct: Synthetic peptide (Bachem); on the western blot it ran as monomers, dimers and trimers; also called Aβ1-42; amyloid β peptide 42
The test can be described thus: competition ELISA in solution (method of Friguet et al.).

The target of test [3] is T2, Aβ fragment 1-16 (human).
T2 construct: also called Aβ1-16; Aβ16
T2 peptide: DAEFRHDSGYEVHHQK
The test can be described thus: competitive inhibition ELISA with soluble Aβ fragments. On the procedure:
as §1

The target of test [4] is T3, Aβ fragment 29-40 (human).
T3 peptide: GAIIGLMVGGVV
The description is as above. On the procedure: as §1

The target of test [5] is T4, A-beta 40 peptide (Aβ40) (human, biotinylated when bound to the streptavidin-coated ELISA plate).
T4 construct: Aβ42 without the C-terminal amino acids IA; The ELISA methods say A-beta 40 or A-beta 42 (preferably A-beta 40); also called Aβ1-40
T4 sequence (peptide, as listed by the source): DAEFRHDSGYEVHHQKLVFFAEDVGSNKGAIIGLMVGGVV
In words: ELISA on plate-bound Aβ.

T1 sequence (peptide, as listed by the source): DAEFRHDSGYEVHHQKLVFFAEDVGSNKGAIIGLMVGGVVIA

B1: Aβ 16-35 (peptide)
peptide: KLVFFAEDVGSNKGAIIGLM
notes: This fragment is not in the list of fragments said to be tested (1-16, 10-20, 15-25, 22-35, 29-40)
As for B1, the IC50 (commonly the concentration at which inhibition is half-maximal) in test [1] was 16 nM. That is a double-digit nanomolar value.
Regarding B2, the Kd (in general, the equilibrium constant for the complex coming apart) in test [2] turned out to be 17 nM. Further, the binding result in test [3] and in test [4] was “no binding” throughout.

B3: R3VQ(His)-N-(DOTA/Gd) conjugate 2c (VHH)
VHH: EVQLQASGGGLVQTGDSLRLSCADSGSTFRNYNIGWFRQTPGQAREFVAAVSRTGISTHVADSLQGRFTISRDNAKNTVYLQMNSLKPEDTAVYSCAAGRPGVGAVNRAMDYDYWGQGTQVTVSS
modifications: DOTA/Gd randomly on lysine residues; average Gd/protein (1) 2 (3)
notes: Non-site-specific conjugate of R3VQ(His)-NH2 1; not shown: 6-Histidine tag from modified vector pET23
B3: the “binding in ELISA compared to the original VHH 1” value in test [5] is ~10%.

B4: R3VQ(His)-N-(DOTA/Gd) conjugate 2d (VHH)
VHH: EVQLQASGGGLVQTGDSLRLSCADSGSTFRNYNIGWFRQTPGQAREFVAAVSRTGISTHVADSLQGRFTISRDNAKNTVYLQMNSLKPEDTAVYSCAAGRPGVGAVNRAMDYDYWGQGTQVTVSS
modifications: DOTA/Gd randomly on lysine residues; average Gd/protein (1) 2 (3)
notes: as for B3
In the case of B4, in test [5], the “binding in ELISA compared to the original VHH 1” value was ~10%.
